Source: patent US6942853

Tests used:
[1] = tested on: 75 kDa glycosylated product of LAP-mIFNβ
[2] = tested on: 75 kDa glycosylated product of mIFNβ-LAP
[3] = biological target: LAP-mIFNβ fusion protein (human (LAP of TGFβ) fused to mouse (IFNβ)); assay: cell-based or functional assay
[4] = tested on: CHO-derived latent TGFβ binding protein (LTBP)

Chain of LAP-mIFNβ fusion protein (chain, as listed by the source): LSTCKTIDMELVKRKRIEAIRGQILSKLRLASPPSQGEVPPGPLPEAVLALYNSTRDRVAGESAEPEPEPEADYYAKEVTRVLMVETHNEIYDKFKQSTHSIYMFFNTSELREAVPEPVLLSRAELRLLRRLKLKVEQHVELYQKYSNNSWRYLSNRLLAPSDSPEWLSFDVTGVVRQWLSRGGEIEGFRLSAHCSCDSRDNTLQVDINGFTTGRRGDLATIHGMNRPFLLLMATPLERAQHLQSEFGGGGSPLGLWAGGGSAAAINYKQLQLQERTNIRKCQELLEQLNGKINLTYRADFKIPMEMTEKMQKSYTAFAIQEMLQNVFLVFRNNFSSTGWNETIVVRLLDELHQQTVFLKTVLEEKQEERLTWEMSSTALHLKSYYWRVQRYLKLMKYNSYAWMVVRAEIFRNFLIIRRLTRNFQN
Chain of active MMP1 (recombinant) (P03956 100-469): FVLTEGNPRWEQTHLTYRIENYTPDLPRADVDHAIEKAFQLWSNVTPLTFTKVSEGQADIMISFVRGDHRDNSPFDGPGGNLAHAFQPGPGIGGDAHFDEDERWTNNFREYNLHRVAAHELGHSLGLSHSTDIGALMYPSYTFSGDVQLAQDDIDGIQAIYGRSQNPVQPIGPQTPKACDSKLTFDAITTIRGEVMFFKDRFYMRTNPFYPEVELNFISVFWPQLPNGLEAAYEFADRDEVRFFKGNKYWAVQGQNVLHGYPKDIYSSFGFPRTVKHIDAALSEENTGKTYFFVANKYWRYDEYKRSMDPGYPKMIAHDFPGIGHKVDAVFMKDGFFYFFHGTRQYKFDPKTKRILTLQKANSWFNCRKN
Chain of mIFNβ-LAP fusion protein (chain, as listed by the source): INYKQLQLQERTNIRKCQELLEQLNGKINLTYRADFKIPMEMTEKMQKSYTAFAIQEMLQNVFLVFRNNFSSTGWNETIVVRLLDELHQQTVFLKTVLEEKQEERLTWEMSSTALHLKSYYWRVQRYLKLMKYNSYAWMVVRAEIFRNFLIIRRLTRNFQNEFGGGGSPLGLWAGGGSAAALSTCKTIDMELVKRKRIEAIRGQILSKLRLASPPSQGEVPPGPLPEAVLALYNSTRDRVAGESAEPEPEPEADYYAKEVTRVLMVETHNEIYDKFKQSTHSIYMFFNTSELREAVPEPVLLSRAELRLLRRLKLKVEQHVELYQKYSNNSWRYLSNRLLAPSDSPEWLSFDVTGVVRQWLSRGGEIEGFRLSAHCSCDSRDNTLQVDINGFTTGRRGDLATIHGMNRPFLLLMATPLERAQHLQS
Chain of recombinant pro-MMP9 (P14780 20-707): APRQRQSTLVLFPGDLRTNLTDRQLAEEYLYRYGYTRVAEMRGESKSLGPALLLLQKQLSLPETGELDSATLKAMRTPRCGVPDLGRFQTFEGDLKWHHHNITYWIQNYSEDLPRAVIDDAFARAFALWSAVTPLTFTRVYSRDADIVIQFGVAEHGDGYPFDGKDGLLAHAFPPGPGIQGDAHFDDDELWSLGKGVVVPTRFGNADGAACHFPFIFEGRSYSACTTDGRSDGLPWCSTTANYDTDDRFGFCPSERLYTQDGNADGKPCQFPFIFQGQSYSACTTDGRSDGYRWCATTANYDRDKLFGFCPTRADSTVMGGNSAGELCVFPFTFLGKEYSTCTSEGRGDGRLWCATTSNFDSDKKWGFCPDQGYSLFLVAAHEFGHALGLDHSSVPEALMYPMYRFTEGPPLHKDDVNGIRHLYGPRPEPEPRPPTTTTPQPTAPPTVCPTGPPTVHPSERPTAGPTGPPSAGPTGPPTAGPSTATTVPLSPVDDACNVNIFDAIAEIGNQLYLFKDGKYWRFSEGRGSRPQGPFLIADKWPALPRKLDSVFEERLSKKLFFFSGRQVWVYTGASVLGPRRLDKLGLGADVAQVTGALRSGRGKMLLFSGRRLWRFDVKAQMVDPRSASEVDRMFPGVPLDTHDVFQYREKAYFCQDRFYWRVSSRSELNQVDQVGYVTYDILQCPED

Substance	mIFNβ biological activity (U/ml) after MMP treatment (LAP-mIFNβ fusion protein)	proteolytic cleavage of immunoprecipitated protein, SDS-PAGE (LAP-mIFNβ fusion protein)	proteolytic cleavage of immunoprecipitated protein, SDS-PAGE [1]	proteolytic cleavage of immunoprecipitated protein, SDS-PAGE [2]	mIFNβ biological activity (U/ml) after MMP treatment (mIFNβ-LAP fusion protein)	proteolytic cleavage of immunoprecipitated protein, SDS-PAGE (mIFNβ-LAP fusion protein)	fold activation of antiviral activity (non-concentrated supernatants from MTX amplified cells) [3]	proteolytic cleavage of immunoprecipitated protein, SDS-PAGE [4]	proteolytic cleavage (LAP-mIFNβ fusion protein)	proteolytic cleavage (mIFNβ-LAP fusion protein)
active MMP1 (recombinant)	6140 U/ml	pro-MMP9 or MMP1 did not cleave very efficiently the 57 kDa recombinant product	MMP1 was capable of cleaving the glycosylated form of the fusion protein	MMP1 was capable of cleaving the glycosylated form of the fusion protein	6140 U/ml	pro-MMP9 or MMP1 did not cleave very efficiently the 57 kDa recombinant product				
active MMP1 (recombinant) (enzyme)							21 fold			
active MMP3 (recombinant)	9220 U/ml	MMP3 was capable on its own to digest it into several discreet bands			3070 U/ml	MMP3 was capable on its own to digest it into several discreet bands		The LTBP band was also cleaved by MMP3		
active MMP3 (recombinant) (enzyme)							32 fold			
recombinant pro-MMP9	288 U/ml	pro-MMP9 or MMP1 did not cleave very efficiently the 57 kDa recombinant product			1540 U/ml	pro-MMP9 or MMP1 did not cleave very efficiently the 57 kDa recombinant product			MMP9 could not cleave the fusion proteins	MMP9 could not cleave the fusion proteins
